This is an account of results in patent US7964369 (Stanford University, dated 2011).

This experiment has as its target T1, SOS vector alone (hSOS without GRAIL) (human, UniProt Q07889 1-1066).
T1 construct: Negative control bait of the yeast two-hybrid screen
T1 sequence (looked up): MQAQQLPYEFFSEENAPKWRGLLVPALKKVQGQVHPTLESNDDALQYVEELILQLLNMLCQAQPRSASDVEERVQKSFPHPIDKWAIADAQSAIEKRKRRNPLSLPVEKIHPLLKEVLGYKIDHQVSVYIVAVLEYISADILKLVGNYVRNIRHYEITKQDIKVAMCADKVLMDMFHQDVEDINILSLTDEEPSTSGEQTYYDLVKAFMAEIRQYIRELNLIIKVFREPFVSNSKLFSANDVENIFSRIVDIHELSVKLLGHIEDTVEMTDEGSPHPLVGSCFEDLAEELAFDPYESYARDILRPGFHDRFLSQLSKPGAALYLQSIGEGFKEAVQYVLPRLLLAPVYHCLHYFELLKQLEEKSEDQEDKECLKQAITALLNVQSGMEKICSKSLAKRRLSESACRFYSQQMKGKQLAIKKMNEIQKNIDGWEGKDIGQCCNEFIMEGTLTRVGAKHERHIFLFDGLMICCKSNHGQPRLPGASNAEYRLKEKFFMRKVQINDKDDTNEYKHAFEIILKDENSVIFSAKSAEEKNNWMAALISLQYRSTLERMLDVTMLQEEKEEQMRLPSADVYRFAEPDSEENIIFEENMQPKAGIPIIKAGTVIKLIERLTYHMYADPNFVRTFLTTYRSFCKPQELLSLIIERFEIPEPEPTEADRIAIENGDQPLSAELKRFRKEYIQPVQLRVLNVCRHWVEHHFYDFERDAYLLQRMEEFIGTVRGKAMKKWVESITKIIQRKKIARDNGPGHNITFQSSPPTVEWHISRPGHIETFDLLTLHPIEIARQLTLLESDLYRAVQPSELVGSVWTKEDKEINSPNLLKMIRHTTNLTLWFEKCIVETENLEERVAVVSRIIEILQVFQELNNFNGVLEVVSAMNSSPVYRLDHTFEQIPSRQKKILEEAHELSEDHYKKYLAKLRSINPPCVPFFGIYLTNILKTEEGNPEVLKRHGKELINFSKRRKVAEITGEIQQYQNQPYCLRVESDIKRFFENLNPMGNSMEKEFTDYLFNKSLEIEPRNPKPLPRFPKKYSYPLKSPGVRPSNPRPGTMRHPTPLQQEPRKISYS
The experiment is described as follows: yeast two-hybrid (CytoTrap), secondary screen, growth on galactose at 37 C. The protocol: Table I: A mouse liver library cloned into pMyr vector was purchased from Stratagene (La Jolla, CA). The C-terminal half of GRAIL, starting at F225 was PCR amplified, cloned into the pSOS vector, and used as bait. Yeast competent cells were co-transformed with either the bait and library or control vectors as described in the CytoTrap instruction manual (Stratagene). More than 5 x 10^5 clones were screened. Colonies displaying growth on galactose but not glucose at 37° C. were considered to be putative positives and were evaluated in a secondary screen. Colonies growing in the secondary screen on galactose at 37° C. and in the presence of the GRAIL-SOS bait vector, but not the SOS vector alone, were considered true interactors and sequenced.
Yeast and bacterial two-hybrid analysis. A mouse liver library cloned into pMyr vector was purchased from Stratagene (La Jolla, Calif.). The C-terminal half of Grail, starting at F225, was PCR amplified, cloned into the pSOS vector, and used as bait. Yeast competent cells were co-transformed with either the bait and library or control vectors as described in the CytoTrap instruction manual (Stratagene). More than 5 ×10^5 clones were screened. Colonies displaying growth on galactose but not glucose at 37° C. were considered to be putative positives and were used on a secondary screen. […]

B1: clone 6A-36 (98% identical to human FLJ20113, OTUBAIN-1) (enzyme, mouse, UniProt Q7TQI3 97-271, looked up)
chain: GFSHLEALLDDSKELQRFKAVSAKSKEDLVSQGFTEFTIEDFHNTFMDLIEQVEKQTSVADLLASFNDQSTSDYLVVYLRLLTSGYLQRESKFFEHFIEGGRTVKEFCQQEVEPMCKESDHIHIIALAQALSVSIQVEYMDRGEGGTTNPHVFPEGSEPKVYLLYRPGHYDILYK
notes: Partial clone of mouse otubain-1; also called 525 bp insert; 525 bp cDNA fragment; not shown: myristoylation signal of the pMyr plasmid
As for B1, the binding result is on record as “no binding”.
